# Data: US20250034266A1 (ZAI LAB SHANGHAI, published 2025)
# B1: CM149 (antibody, V domains shown)
# VH: EVQLVESGGGLVQPKGSLKLSCAASGFTFNTYAMNWVRQAPGKGLEWVARIRSKSNFYATYYADSVKDRFTISRDDSQDMLYLQMNILKTEDTAIYYCVRGRDYGSSYAMDYWGQGTSVTVSS
# VL: DIVMTQAAPSVPVTPGESVSISCRSSKSLLHSNANTYLYWFLQRPGQSPQLLIYRMSNLASGVPDRFSGSGSGTAFTLRISRVEAEDVGVYYCMQHLEYPLTFGAGTKLELK
# notes: CM149 is not defined in words; also called CM149 HuIgG1; parental antibody CM149
# B2: Hu149-9 (antibody, human IgG1, V domains shown)
# VH: EVQLVESGGGLVQPGGSLKLSCAASGFTFNTYAMNWVRQASGKGLEWVGRIRSKSNFYATAYAASVKGRFTISRDDSKNTAYLQMNSLKTEDTAVYYCTRGRDYGSSYAMDYWGQGTLVTVSS
# VL: DIVMTQSPLSLPVTPGEPASISCRSSKSLLHSNANTYLYWFLQKPGQSPQLLIYRMSNLASGVPDRFSGSGSGTDFTLKISRVEAEDVGVYYCMQHLEYPLTFGGGTKVELK
# notes: humanized, human IgG1; also called Hu149-9 HuIgG1
# B3: Hu348-4 (antibody, human IgG1, V domains shown)
# VH: EVQLVESGGGLVQPGGSLKLSCATSGFSFSNYRMHWLRQASGKGLEWVGVITVKSDNYGANYAASVKGRFTISRDDSKSSVYLQMNSLKTEDTAVYYCSSLGRVAYWGQGTLVTVSS
# VL: DIQMTQSPSSVSASVGDRVTITCKASQNVDTNVVWYQQKPGQSPKALIYSASSRYSGVPSRFSGSGSGTDFTLTISSLQPEDFATYYCQQHNSFPLTFGQGTKLEIK
# notes: humanized, human IgG1; also called Hu348-4 HuIgG1
# B4: Hu149-11 (antibody, human IgG1)
# heavy: not shown
# VL: B2 VL
# notes: also called Hu149-11G1
# B5: Hu149-12 (antibody, human IgG1)
# heavy: not shown
# VL: B2 VL
# notes: human IgG1; suffix G1 read as wild type as for Hu149-11G1; also called Hu149-12G1
# Columns and labels:
# [1] = target: T1, cynomolgus CCR8 (cynomolgus, UniProt G7NYJ2 1-355); test: FACS on HEK293-cynomolgus CCR8 cells
# T1 construct: whole, on cells
# Protocol: (§1) A total of 5×10⁴ cells for each well were seeded in 96-well plates and washed with FACS buffer (DPBD containing 1.5% FBS) for once. Antibodies were prepared with 3-fold serial dilution ranging from 100 nM to 0.0017 nM in FACS buffer. Cells were incubated with 50 μL of diluted antibodies at 4° C. for 1 hour. […] After primary antibody incubation, cells were washed for 3 times by FACS buffer. Then, cells were stained by Alexa Flu647 labeled anti-human IgG secondary antibody (Jackson ImmunoResearch, #109606170) or Alexa Flu647 labeled anti-mouse IgG secondary antibody (Jackson ImmunoResearch, #115605072) at 1:600 dilution in FACS buffer for 0.5 hour at 4° C. After washed for 3 times, Flow cytometry was performed to measure the binding.
# [2] = target: T2, human CCR8 (human, UniProt P51685 1-355); test: FACS on HEK293-human CCR8 cells
# T2 construct: whole, on cells; also called hCCR8
# Protocol: as §1
# [3] = target: T2, human CCR8; test: cell-based or functional assay
# [4] = target: T2, human CCR8; test: FACS on HEK293-human CCR8 cells; remark: listed apart in the source
# Protocol: as §1
# [5] = target: T2, human CCR8; test: FACS, competition with AF647-human CCL1 on CHO-K1-human CCR8 cells
# [6] = target: T2, human CCR8; test: as above; remark: listed apart in the source
# [7] = target: T1, cynomolgus CCR8; test: FACS on HEK293-cynomolgus CCR8 cells; remark: listed apart in the source
# Protocol: as §1
# [8] = target: T2, human CCR8; test: FACS on CHO-K1-human CCR8 cells
# [9] = target: T1, cynomolgus CCR8; test: FACS on HEK293-cynomolgus CCR8 cells; remark: listed apart in the source
# [10] = target: T2, human CCR8; test: FACS, competition with CCL1 on CHO-K1-human CCR8 cells
# [11] = target: T2, human CCR8; test: FACS on HuT78 cells (endogenous human CCR8)
# Procedure, shortened: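 HuT78 cells with endogenous human CCR8 were incubated with diluted antibodies for 1 h at 4 °C, washed, then stained 0.5 h at 4 °C with Alexa Fluor 647 anti-human IgG (1:600). Binding measured by flow cytometry.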
# [12] = target: T3, human CCR4 (human, UniProt P51679 1-360); test: FACS on ExpiCHO-S-human CCR4 cells
# T3 construct: whole, on cells
# T3 sequence (looked up): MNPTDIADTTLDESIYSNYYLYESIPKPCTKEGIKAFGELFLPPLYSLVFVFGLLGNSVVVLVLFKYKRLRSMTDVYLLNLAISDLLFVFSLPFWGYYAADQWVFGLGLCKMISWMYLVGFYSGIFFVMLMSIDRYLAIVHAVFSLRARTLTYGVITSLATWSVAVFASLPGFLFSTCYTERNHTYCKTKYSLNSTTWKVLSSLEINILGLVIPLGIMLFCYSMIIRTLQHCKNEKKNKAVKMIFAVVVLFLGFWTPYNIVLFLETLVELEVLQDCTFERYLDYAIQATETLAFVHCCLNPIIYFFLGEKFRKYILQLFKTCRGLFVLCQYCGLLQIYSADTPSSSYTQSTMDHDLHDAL
# Protocol: (§2) ExpiCHO-S cells were transiently transfected with human CCR1 or human CCR4. A total of 5×10⁴ cells for each well were seeded in 96-well plates and washed with FACS buffer (DPBS containing 1.5% FBS) for once. […] Cells were incubated with 50 μL of diluted antibodies at 4° C. for 1 hour. […] After primary antibody incubation, cells were washed for 3 times by FACS buffer. Then, cells were stained by Alexa Flu647 labeled anti-human IgG secondary antibody (Jackson ImmunoResearch, #109606170) or Alexa Flu647 labeled anti-mouse IgG secondary antibody (Jackson ImmunoResearch, #115605072) at 1:600 dilution in FACS buffer for 0.5 hour at 4° C. Flow cytometry was performed to measure the binding.
# [13] = target: T2, human CCR8; test: FACS, competition with AF647-human CCL1 on CHO-K1-human CCR8 cells; remark: listed apart in the source
# [14] = target: T4, human CCR1 (human, UniProt P32246 1-355); test: FACS on ExpiCHO-S-human CCR1 cells
# T4 construct: whole, on cells
# T4 sequence (looked up): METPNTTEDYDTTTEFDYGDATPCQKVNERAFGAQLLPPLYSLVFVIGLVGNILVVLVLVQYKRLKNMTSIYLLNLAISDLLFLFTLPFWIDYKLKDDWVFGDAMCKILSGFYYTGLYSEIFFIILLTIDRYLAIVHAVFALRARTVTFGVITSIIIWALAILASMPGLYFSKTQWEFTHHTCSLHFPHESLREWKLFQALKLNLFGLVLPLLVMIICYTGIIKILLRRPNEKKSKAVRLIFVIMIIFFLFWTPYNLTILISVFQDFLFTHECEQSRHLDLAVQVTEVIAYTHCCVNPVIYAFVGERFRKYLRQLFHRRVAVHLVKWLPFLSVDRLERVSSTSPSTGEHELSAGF
# Protocol: as §2
# [15] = target: T2, human CCR8; test: FACS on HEK293-human CCR8 cells; remark: listed apart in the source
# [16] = target: T1, cynomolgus CCR8; test: FACS on ExpiCHO-S-cynomolgus CCR8 cells
# [17] = target: T2, human CCR8; test: FACS on HuT78 cells (endogenous human CCR8); remark: listed apart in the source
# [18] = target: T2, human CCR8; test: FACS, competition with CCL1 on CHO-K1-human CCR8 cells; remark: listed apart in the source
# [19] = target: T2, human CCR8; test: cell-based or functional assay; remark: listed apart in the source
# [20] = target: T2, human CCR8; test: cell-based or functional assay; remark: listed apart in the source
# [21] = target: T1, cynomolgus CCR8; test: FACS on HEK293-cynomolgus CCR8 cells; remark: listed apart in the source
# [22] = target: T2, human CCR8; test: FACS on CHO-K1-human CCR8 cells; remark: listed apart in the source
# T2 sequence (P51685 whole entry): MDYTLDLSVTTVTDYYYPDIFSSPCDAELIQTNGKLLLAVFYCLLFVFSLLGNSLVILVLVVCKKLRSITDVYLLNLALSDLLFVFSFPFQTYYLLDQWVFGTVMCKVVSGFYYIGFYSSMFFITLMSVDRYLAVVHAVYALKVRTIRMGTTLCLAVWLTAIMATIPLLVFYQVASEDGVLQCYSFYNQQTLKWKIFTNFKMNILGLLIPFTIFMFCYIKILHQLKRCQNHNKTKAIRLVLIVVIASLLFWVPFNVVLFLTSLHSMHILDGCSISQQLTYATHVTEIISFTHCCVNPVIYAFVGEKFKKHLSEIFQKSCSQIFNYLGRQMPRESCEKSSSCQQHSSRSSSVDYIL
# T1 sequence (G7NYJ2 entry or part of it): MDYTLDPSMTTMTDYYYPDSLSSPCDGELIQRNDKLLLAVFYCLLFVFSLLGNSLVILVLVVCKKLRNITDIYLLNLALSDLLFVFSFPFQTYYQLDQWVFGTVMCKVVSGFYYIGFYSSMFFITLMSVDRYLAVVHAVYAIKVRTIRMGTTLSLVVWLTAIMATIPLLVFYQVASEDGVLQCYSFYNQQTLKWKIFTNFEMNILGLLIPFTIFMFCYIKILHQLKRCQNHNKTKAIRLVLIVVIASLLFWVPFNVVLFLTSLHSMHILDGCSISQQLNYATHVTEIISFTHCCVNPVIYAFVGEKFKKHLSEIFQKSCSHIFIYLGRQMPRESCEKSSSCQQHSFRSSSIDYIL
Binder,EC50 [1] [pM],EC50 [2] [pM],"EC50, ADCC with human PBMC [3] [pM]","Max specific lysis (%), ADCC with human PBMC [3] [%]",IC50 [6] [pM],EC50 [8] [pM],Max MFI [8] [MFI],EC50 [9] [pM],Max MFI [9] [MFI],IC50 [10] [pM],Max Inhibition (%) [10] [%],Max MFI [11] [MFI],EC50 [17] [pM],Max MFI [17] [MFI],IC50 [18] [pM],Max Inhibition (%) [18] [%],"IC50, inhibition of CCL1 induced β-Arrestin recruitment [19] [pM]","Max Inhibition (%), CCL1 induced β-Arrestin recruitment [19] [%]","IC50, blocking of cell migration induced by CCL1 [20] [pM]",EC50 [21] [pM],further results
B1,263,180,67,10.3,708,,,,,,,,,,,,,,,,EC50 [4]: 142 pM; Max MFI [4]: 7100 MFI; IC50 [5]: 681 pM; Max Inhibition (%) [5]: 97.8%; EC50 [7]: 235 pM; Max MFI [7]: 18100 MFI
B2,120,72,60,7.56,119,48.7,625000,82.4,3.53e+06,87,99.2,32300,,,,,,,,,
B3,,,517,13.5,,,,,,,,,,,,,,,,,binding result [12]: no binding (tested: 200 nM); IC50 [13]: 151 pM; Max Inhibition (%) [13]: 94.6%; binding result [14]: no binding (tested: 200 nM); EC50 [15]: 109 pM; Max MFI [15]: 5120 MFI; EC50 [16]: 87 pM; Max MFI [16]: 534 MFI
B4,,,,,,79.7,648000,137,4.6e+06,98.8,100,30200,735,57900,283,99.5,800,85.2,849,262,Max MFI [21]: 4.48e+06 MFI; EC50 [11]: 278 pM; EC50 [22]: 158 pM; Max MFI [22]: 210000 MFI
B5,,,,,,67.5,638000,199,4.04e+06,98.2,100,26900,250,48100,184,99.5,350,85.8,953,170,Max MFI [21]: 3.61e+06 MFI; EC50 [11]: 170 pM; EC50 [22]: 93 pM; Max MFI [22]: 199000 MFI
